Test results as given in patent US20030175679A1, “Methods for cell screening of compounds capable of modulating the activity of ubiquitin-ligase scf complexes and their uses” (priority 1999, published 2003).

B1: Ha-Met4: Met4 protein derivative with three hemagglutinin (Ha) antigenic units at its amino-terminal end, expressed in yeast under the GAL1 promoter (protein, UniProt P32389 1-672, looked up)
Transcriptional activator of …: MKQEQSHEGDSYSTEFINLFGKDTATHPSSNNGANNNGMGSTNSLDQFVATASSSSSLVTSSENRRPLIGDVTNRGNTNLYDHAVTPEILLEQLAYVDNFIPSLDNEFSNVDWNVNTTHNNANNNGADTFSSINANPFDLDEQLAIELSAFADDSFIFPDEDKPSNNNNNSNNGNDDHSNHDVLHEDPSTNNRQRNPHFLTQRRNTFLTSQYDQSKSRFSSKNKRNGNNGETNNFGDNMQNNHPFEPNFMGSPSQFPADATNMTSIDHGGFTNVDITSTENNTTGDNGVDALSNLLHRTTHTPNRSSPLSNVTSAQNSSSQQRKHSESKVDSNSDNNSSNKAPNITVPDYSIIPTSVLVTLLPRVNVPNGAYNSLISAGFDNDQIDAIAAIMAYHHQKKIRENNSNNNKNINTNDSQEAPILKNINELLSVLIPPSPAETRGPTTLSTSPSFNEHGVVAEASFLSSILELGIKHPKSNNIHNQRQPSRNDHKISRESDGNNGNDNVHHNNAVIKSSTTRGDEIAKIRSEPTLNASSSDHKENSLKRSHSGDLKNKKVPVDRKYSDNEDDEYDDADLHGFEKKQLIKKELGDDDEDLLIQSKKSHQKKKLKEKELESSIHELTEIAASLQKRIHTLETENKLLKNLVLSSGETEGIKKAESLKKQIFEKVQKE
modifications: N-terminal 3x HA tag
notes: Met4 protein derivative with three hemagglutinin (Ha) antigenic units at its amino-terminal end, expressed in yeast under the GAL1 promoter
B2: Ha-Met28: full-length Met28 protein with a repetition of 3 hemagglutinin (Ha) antigenic units at its amino-terminal end (protein, UniProt P40573 1-187, looked up)
chain: MSAKQGWEKKSTNIDIASRKGMNVNNLSEHLQNLISSDSELGSRLLSLLLVSSGNAEELISMINNGQDVSQFKKLREPRKGKVAATTAVVVKEEEAPVSTSNELDKIKQERRRKNTEASQRFRIRKKQKNFENMNKLQNLNTQINKLRDRIEQLNKENEFWKAKLNDINEIKSLKLLNDIKRRNMGR
modifications: full-length N-terminal 3x HA tag
notes: full-length Met28 protein with a repetition of 3 hemagglutinin (Ha) antigenic units at its amino-terminal end
B3: Ha-Met30: full-length Met30 protein with a repetition of 3 hemagglutinin (Ha) antigenic units at its amino-terminal end (protein, UniProt P39014 1-640, looked up)
chain: MRRERQRMMSFEDKDKDDLDNSNSNNSSEMTDTAMMPPLKRLLITGSSDDLAQGSSGKKKMTMATRSPSSSPDLATNDSGTRVQPLPEYNFTKFCYRHNPDIQFSPTHTACYKQDLKRTQEINANIAKLPLQEQSDIHHIISKYSNSNDKIRKLILDGILSTSCFPQLSYISSLVTHMIKIDFISILPQELSLKILSYLDCQSLCNATRVCRKWQKLADDDRVWYHMCEQHIDRKCPNCGWGLPLLHMKRARIQQNSTGSSSNADIQTQTTRPWKVIYRERFKVESNWRKGHCRIQEFKGHMDGVLTLQFNYRLLFTGSYDSTIGIWDLFTGKLIRRLSGHSDGVKTLYFDDRKLITGSLDKTIRVWNYITGECISTYRGHSDSVLSVDSYQKVIVSGSADKTVKVWHVESRTCYTLRGHTEWVNCVKLHPKSFSCFSCSDDTTIRMWDIRTNSCLKVFRGHVGQVQKIIPLTIKDVENLATDNTSDGSSPQDDPTMTDGADESDTPSNEQETVLDENIPYPTHLLSCGLDNTIKLWDVKTGKCIRTQFGHVEGVWDIAADNFRIISGSHDGSIKVWDLQSGKCMHTFNGRRLQRETQHTQTQSLGDKVAPIACVCIGDSECFSGDEFGCVKMYKFDLND
modifications: full-length N-terminal 3x HA tag
notes: full-length Met30 protein with a repetition of 3 hemagglutinin (Ha) antigenic units at its amino-terminal end

Test system: Yeast cells
Experiment: Stability of Ha-labeled hybrid proteins expressed from the GAL1 promoter, measured with anti-Ha antibodies
Type: cell-based, S. cerevisiae
[1] = in the absence of methionine (-Met)
[2] = repressive conditions, in the presence of methionine (+Met)

| Molecule | half-life of the hybrid protein [1] [min] | half-life of the hybrid protein [2] |
| --- | --- | --- |
| B1 | ~20 | ~5 min |
| B2 | ~20 | do not modify the half-life |
| B3 | ~20 | do not modify the half-life |
